Data on three molecules can be found in patent US20230057987A1 (published 2023).

Several values for one entry are separate records, joined by “and”; a condition that tells them apart may be missing. Equal entries are not always repeated.

In experiment [1] the target is T1, similar peptide SP-05-0004, source protein not stated peptide on HLA-A*02:01 (human).
T1 peptide: KIWEWLVGV
Description: killing.

Experiment [2] deals with T2, similar peptide SP-05-0005, source protein not stated peptide on HLA-A*02:01 (human).
T2 peptide: KIEEFLEAV
Description: killing.

The target of experiment [3] is T3, similar peptide SP-05-0006, source protein not stated peptide on HLA-A*02:01 (human).
T3 peptide: KIAELLENV
In words: killing.

Experiment [4] concerns the target T4, similar peptide SP-05-0009, source protein not stated peptide on HLA-A*02:01 (human).
T4 peptide: KIIDLLPKV
Description: killing.

Experiment [5] concerns the target T5, CT45-IP alanine variant, position 1 peptide on HLA-A*02:01 (human).
T5 peptide: AIFEMLEGV
In words: killing.

Experiment [6] deals with T6, similar peptide SP-05-0002, source protein not stated peptide on HLA-A*02:01 (human).
T6 peptide: KIFSGLLKV
In words: killing.

Experiment [7] deals with T7, similar peptide SP-05-0008, source protein not stated peptide on HLA-A*02:01 (human).
T7 peptide: KILDELEKV
In words: killing.

The target in experiment [8] is T8, similar peptide SP-05-0003, source protein not stated peptide on HLA-A*02:01 (human).
T8 peptide: KVTEMLVNV
In words: killing.

The target in experiment [9] is T9, similar peptide SP-05-0001, source protein not stated peptide on HLA-A*02:01 (human).
T9 peptide: HIMEHLEGV
Description: killing.

Experiment [10] deals with T10, similar peptide SP-05-0010, source protein not stated peptide on HLA-A*02:01 (human).
T10 peptide: RIFETVNSV
In words: killing.

For experiment [11], the target named is T11, CT45-IP alanine variant, position 5 peptide on HLA-A*02:01 (human).
T11 peptide: KIFEALEGV
Description: killing.

In experiment [12] the target is T12, similar peptide SP-05-0007, source protein not stated peptide on HLA-A*02:01 (human).
T12 peptide: KIFPALCTV
Description: killing.

Experiment [13] deals with CT45-IP antigenic peptide (…) in complex with HLA-A*02 presented on cells (peptide-loaded T2 cells; NCIH1703 and A375 tumor cells) (human). Description: cell-based or functional assay.
The target of experiment [14] is T13, CT45 (CT45A1, A2, A3, A5 to A10); CT45-IP peptide on HLA-A*02:01 (human).
T13 peptide: KIFEMLEGV
Description: CT45-IP-HLA-A*02 dextramer on T cells with TCR mRNA; TCR found by tetramer sorting; full-length, on cells.

The target in experiment [15] is T13, CT45 (CT45A1, A2, A3, A5 to A10); …. In words: luciferase release, 24 h, 1:1; CD8+ T cells with TCR mRNA, T2 cells with titrated peptide; full-length, on cells.
In experiment [16] the target is CT45-IP-HLA-A*02 dextramer (human). Description: flow cytometry, dextramer staining of TCR-mRNA electroporated T cells, gated on CD3+. (In general: A flow cytometer gives signals particle by particle.)
The target of experiment [17] is T14, CT45-IP alanine variant, position 4 peptide on HLA-A*02:01 (human).
T14 peptide: KIFAMLEGV
Description: killing.

In experiment [18] the target is T15, CT45-IP alanine variant, position 8 peptide on HLA-A*02:01 (human).
T15 peptide: KIFEMLEAV
Description: killing.

B1: TCR-4 (TCR, V domains shown)
Valpha: QSVAQPEDQVNVAEGNPLTVKCTYSVSGNPYLFWYVQYPNRGLQFLLKYITGDNLVKGSYGFEAEFNKSQTSFHLKKPSALVSDSALYFCAAPRDDKIIFGKGTRLHILP
Vbeta: GVTQTPKFRVLKTGQSMTLLCAQDMNHEYMYWYRQDPGMGLRLIHYSVGEGTTAKGEVPDGYNVSRLKKQNFLLGLESAAPSQTSVYFCASSYLRTGGNEQFFGPGTRLTVL
For the molecule B1, the binding result in [1] is listed as “no recognition”; in experiment [2] it was “no recognition”; in experiment [3], “no recognition”; in experiment [4], “no recognition”; in [5], “recognises”; in experiment [6], “no recognition”. For the same molecule, the binding result in experiment [7] was “no recognition”; in experiment [8], “no recognition”; in experiment [9] it was “no recognition”; in [10], “no recognition”; in experiment [11], “recognises”; in [12] it was “no recognition”. The molecule further gave an EC50, half maximal killing capacity (functional avidity; CT45-IP peptide titration on T2 cells, luciferase release) in experiment [13] of 1.31 nM. The dextramer-positive events in experiment [14] came to 39.1%. The EC50 of peptide in experiment [15] came to 1.31 nM. Further, the surface expression, % positive events by CT45-IP-HLA-A2*02 dextramer staining in experiment [16] turned out to be 39.1%.

B2: TCR-5 (TCR, V domains shown)
Valpha: QQLNQSPQSMFIQEGEDVSMNCTSSSIFNTWLWYKQDPGEGPVLLIALYKAGELTSNGRLTAQFGITRKDSFLNISASIPSDVGIYFCAGGYNYGQNFVFGPGTRLSVLP
Vbeta: GVTQTPKHLITATGQRVTLRCSPRSGDLSVYWYQQSLDQGLQFLIQYYNGEERAKGNILERFSAQQFPDLHSELNLSSLELGDSALYFCASSAGLAGGYEQYFGPGTRLTVT
B2: the binding result in [1] is given as “no recognition”; in experiment [2] it was “no recognition”; in [17], “recognises”; in [3] it was “no recognition”; in experiment [4], “no recognition”; in experiment [5] it was “recognises”. Further, the binding result was “no recognition” in experiment [6]; “no recognition” in experiment [7]; “no recognition” in [8]; “no recognition” in experiment [9]; “no recognition” in [10]; “recognises” in [11]. Further, in experiment [12], the binding result was “no recognition”. Moreover, the EC50, half maximal killing capacity (functional avidity; CT45-IP peptide titration on T2 cells, luciferase release) in experiment [13] stood at 1.32 nM. This molecule also gave a dextramer-positive events in experiment [14] of 61.1%. In [15], the EC50 of peptide worked out at 1.32 nM. Also, the surface expression, % positive events by CT45-IP-HLA-A2*02 dextramer staining in experiment [16] is 55.5% and 61.1%.

B3: TCR-12 (TCR, V domains shown)
Valpha: QLLEQSPQFLSIQEGENLTVYCNSSSVFSSLQWYRQEPGEGPVLLVTVVTGGEVKKLKRLTFQFGDARKDSSLHITAAQPGDTGLYLCAGGLSDSYDKVIFGPGTSLSVIP
Vbeta: EVTQTPKHLVMGMTNKKSLKCEQHMGHRAMYWYKQKAKKPPELMFVYSYEKLSINESVPSRFSPECPNSSLLNLHLHALQPEDSALYLCASSQGVGQEYGYTFGSGTRLTVV
In the case of B3, the binding result in experiment [1] is listed as “no recognition”; in experiment [2] it was “no recognition”; in experiment [3] it was “no recognition”; in experiment [4], “no recognition”; in experiment [5], “recognises”; in [6], “no recognition”. The binding result in experiment [7] is recorded as “no recognition”; in experiment [8], “no recognition”; in experiment [9] it was “no recognition”; in experiment [10] it was “no recognition”; in experiment [11], “recognises”; in experiment [12], “no recognition”. Also, the binding result in experiment [18] was “recognises”. This molecule also yielded an EC50, half maximal killing capacity (functional avidity; CT45-IP peptide titration on T2 cells, luciferase release) in [13] of 47.5 nM. In experiment [14], this molecule came in with a dextramer-positive events of 20.1%. This molecule came in with an EC50 of peptide in experiment [15] of 47.5 nM. In experiment [16], this molecule returned a surface expression, % positive events by CT45-IP-HLA-A2*02 dextramer staining of 20.1%.
